Measurements published in patent US20180273595A1.

T1: recombinant His-tagged full-length ERG, P11308
T1 chain: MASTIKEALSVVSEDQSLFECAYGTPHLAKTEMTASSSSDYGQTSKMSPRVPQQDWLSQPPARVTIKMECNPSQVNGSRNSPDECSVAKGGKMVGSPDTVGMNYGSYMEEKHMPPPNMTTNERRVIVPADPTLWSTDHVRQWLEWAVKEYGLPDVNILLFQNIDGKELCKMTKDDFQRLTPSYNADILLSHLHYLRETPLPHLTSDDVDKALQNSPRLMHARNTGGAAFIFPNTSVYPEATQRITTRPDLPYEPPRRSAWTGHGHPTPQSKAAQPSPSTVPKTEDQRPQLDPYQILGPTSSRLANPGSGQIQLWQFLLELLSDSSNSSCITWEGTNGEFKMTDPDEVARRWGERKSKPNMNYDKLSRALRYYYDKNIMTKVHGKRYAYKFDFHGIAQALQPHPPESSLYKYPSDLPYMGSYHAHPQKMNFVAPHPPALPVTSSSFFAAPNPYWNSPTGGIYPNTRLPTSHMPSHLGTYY


Target: T1, recombinant His-tagged full-length ERG, …
Experiment: OctetRED BLI

Binder	Kd [nM]
GRRRQRRKKRGGTFLYPPL (modifications not checked) [RI-EIP1 retroinverso peptidomimetic]	940
GRRRQRRKKRGGPLSGFSL (modifications not checked) [RI-EIP2 retroinverso peptidomimetic]	1280
